B1: H4H9780P (antibody, human IgG4 S228P, kappa, V domains shown)
VH: QVQLVESGGGVVQPGRSLRLSCAASGFSFSSFGMHWVRQAPGKGLEWVSVISYDGINTYYTDSVKGRFTISRDNSKNTLYLQMNGLRAEDTALYYCVQGSIGTVFEYWGQGTLVTVSS
VL: DIQMTQSPSSLSASVGDRVTITCRASQGISNYLAWYQQKPGKVPKLLIYAASTLQSGVPSRFGGSGSGTDFTLTISSLQPEDVATYYCQKYTSAPFTFGPGTKVDIKR
notes: Fully human anti-human TrkB agonist antibody, human IgG4 Fc; also called H4H9780P-L1
B2: H4H9814P (antibody, human IgG4 S228P, kappa, V domains shown)
VH: EVQLVESGGGLVQPGGSLKLSCTASGFTFSGSVIHWVRQASGKGLEWIGRIRNKANSYATAYGASVTGRFTISRDDSKNTAYLQMNSLKTEDTAVYYCTFPGVVGRGGFDYWGQGTLVTVSS
VL: DIVMTQSPDSLAVSLGEGATINCMSSQSVLFSSNNKNYLAWYQQKPGQPPKLLFYWASTRESGVPDRFGGSGSGTDFSLTINSLQTEDVAVYYCLQYYSIPWTFGQGTKVEIKR
notes: Fully human anti-human TrkB agonist antibody, human IgG4 Fc; also called H4H9814P-L1
B3: H4H9816P2 (antibody, human IgG4 S228P, kappa, V domains shown)
VH: EVQLVESGGGLVQPGGSLTLSCAASGFNFRDYEMIWVRQTPGKGLEWISYISNSGYTIYYADSVKGRFTISRDNARNSIYLQVNSLRAEDTAVYYCSRRTTMIRGIRAYYYYGLDVWGQGTTVTVSS
VL: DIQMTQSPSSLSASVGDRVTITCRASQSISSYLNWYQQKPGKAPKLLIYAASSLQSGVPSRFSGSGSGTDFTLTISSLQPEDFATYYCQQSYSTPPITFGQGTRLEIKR
notes: Fully human anti-human TrkB agonist antibody, human IgG4 Fc; also called H4H9816P-L1
B4: H1M8037C (antibody, mouse IgG1, kappa, V domains shown)
VH: QVQLVQSGAEVKKPGASVKVSCKASGYTFTNYDIIWVRQAPGQGLEWMGYINPYNDGTKYNEKFKGRVTMTRDTSTSTVYMELSSLRSEDTAVYYCARLLKYRRFRYYAIDYWGQGTTVTVSS
VL: DIQMTQSPSSLSASVGDRVTITCRTSENVYSNLAWYQQKPGKAPKLLIYAASNLQSGVPSRFSGSGSGTDYTFTISSLQPEDIATYYCQHFWGSPFTFGQGTKLEIKR
notes: captured by anti-mFc in SPR; also called Comparator; comparator anti-TrkB monoclonal antibody
B5: M2aM14173N (antibody, mouse IgG2a, kappa, V domains shown)
VH: NVSLVESGGGSVKPGGSLQLSCAASGFTFSSSAMSWIRQTPEMRLEWVATISDRGSYTYYPDSVEGRFTISRDNAKNILYLQMSHLMSEDTAMYYCARGKGEKAYYTAFFAYWGQGSLVTVSA
VL: DIQMTQSPASLSASVGETVTITCRASENIYSYLAWYQQKPGKSPHLLVHNAETLAEGVPSRFSGSGSGPQFSLKINSLQPGDSGTYYCQHHYSSPWTFGGGTKLEIKR
notes: Anti-mouse TrkB antibody from hybridoma, mouse IgG2a Fc; also called surrogate anti-mouse TrkB antibody
B6: M2aM14179N (antibody, mouse IgG2a, kappa, V domains shown)
VH: EVQLQQSGPELVKPGASVKISCKASGYTLTDYYMNWVKQSHGKSLEWIGDINPNNGGTSYNQKFKGKATLTVDKSSSTAYMELRSLTSEDSAVYYCARGAYYSNYFDYWGQGTTLTVSS
VL: DIVMSQSPSSLAVSAGEKVTMSCKSSQSLLNSRTRKNYLAWYQQKPGQSPKLLIYWASTRESGVPDRFTGSGSGTDFTLTISSVQAEDLAVYYCKQSYILFTFGSGTQLEIKR
notes: as for B5

Key:
[1] = target: T1, mouse TrkB extracellular domain expressed with a C-terminal myc-myc-hexahistidine tag (mouse, UniProt P15209 32-429); test: SPR, mAb captured (anti-hFc), 37C
T1 construct: also called mTrkB.mmH; mTRKB.mmH
Description: (§1) Equilibrium dissociation constants (KD values) for TrkB binding to purified anti-TrkB monoclonal antibodies were determined using a real-time surface plasmon resonance biosensor using a Biacore 4000 instrument. All binding studies were performed in 10 mM Hepes pH 7.4, 150 mM NaCl, 3 mM EDTA, and 0.05% v/v Surfactant Tween-20 (HBS-ET running buffer) at 25° C. and 37° C. […] Binding studies were performed on following TrkB reagents; human TrkB extracellular domain expressed with a C-terminal myc-myc-hexahistidine tag (hTRKB.mmH; SEQ ID NO: 76; Accession number NP_001018074.1), mouse TrkB extracellular domain expressed with a C-terminal myc-myc-hexahistidine tag (mTRKB.mmH; SEQ ID NO: 79; Accession number NP_001020245), rat TrkB extracellular domain expressed with a C-terminal myc-myc-hexahistidine tag (rTRKB.mmH; SEQ ID NO: 84; Accession number NP_036863.1), and human TrkB extracellular domain expressed with a C-terminal mouse IgG2a Fc tag (hTrkB-mFc; SEQ ID NO: 77; Accession number NP_001018074.1). […] Kinetic association (kₐ) and dissociation (kd) rate constants were determined by fitting the real-time binding sensorgrams to a 1:1 binding model with mass transport limitation using Scrubber 2.0c curve-fitting software. Binding dissociation equilibrium constants (KD) and dissociative half-lives (t½) were calculated from the kinetic rate constants as: […]

[2] = target: T2, rat TrkB extracellular domain expressed with a C-terminal myc-myc-hexahistidine tag (rat, UniProt Q63604 32-429); test: SPR, mAb captured (anti-hFc), 37C
T2 construct: also called rTrkB.mmH; rTRKB.mmH
Description: as §1

[3] = target: T3, human TrkB extracellular domain expressed with a C-terminal myc-myc-hexahistidine tag (human, UniProt Q16620 32-430); test: SPR, mAb captured (anti-hFc), 37C
T3 construct: also called hTrkB.mmH; hTRKB.mmH
Description: as §1

[4] = target: T4, human TrkB extracellular domain expressed with a C-terminal mouse IgG2a Fc tag (human); test: SPR, mAb captured (anti-hFc), 37C
T4 construct: also called hTrkB-mFc; hTrkB.mFc
Description: as §1

[5] = target: T4, human TrkB extracellular domain …; test: BLI Octet, captured hTrkB.mFc, 300 nM mAb (BDNF run)
Description: (§2) Blocking of anti-human TrkB or anti-mouse TrkB antibodies from binding to TrkB by BDNF or NT-4 was evaluated using a real-time bio-layer interferometry (BLI) based Octet HTX instrument. The entire study was performed in 10 mM HEPES pH 7.4, 300 mM NaCl, 3 mM EDTA, 1 mg/mL BSA, 0.02% NaN3 and 0.05% v/v Surfactant Tween-20 (HBS-EBT running buffer) at 25° C. All the samples were dispensed in a 384 tilted well plate and the plate was placed on the orbital shaker with the shake speed of 1000 rpm. hTrkB.mFc was captured on anti-mFc (AMC) Octet sensors while hTrkB.hFc or mTrkB.hFc were captured on anti-hFc (AHC) Octet sensors by dipping in wells containing 10 μg/mL of TrkB reagents for 2 minutes. hTrkB.mFc or hTrkB.hFc captured Octet biosensors were saturated by dipping in wells containing 20 nM of BDNF, hNT-4, or mNT-4 for 2 minutes followed by dipping Octet biosensors in wells containing 300 nM of different TrkB mAbs for 4 minutes. Binding of TrkB mAbs to the complex of TrkB and BDNF, hNT-4, or mNT-4 was determined using Scrubber 2.0c analysis software.

[6] = target: T4, human TrkB extracellular domain …; test: BLI Octet, captured hTrkB.mFc saturated with BDNF, 300 nM mAb
Description: as §2

[7] = target: T4, human TrkB extracellular domain …; test: BLI Octet, captured hTrkB.mFc saturated with hNT-4, 300 nM mAb
Description: as §2

mouse TrkB.hFc [8] = target: T5, mouse TrkB.hFc (mouse); test: BLI Octet, captured mTrkB.hFc, 300 nM mAb, no ligand
T5 construct: also called mTrkB.hFc; mTrkB-hFc
Description: as §2

mouse TrkB.hFc [9] = target: T5, mouse TrkB.hFc; test: BLI Octet, captured mTrkB.hFc saturated with BDNF, 300 nM mAb
Description: as §2

mouse TrkB.hFc [10] = target: T5, mouse TrkB.hFc; test: blocking ELISA, mouse TrkB.hFc pre-mixed with mAb, plate-coated BDNF
Description: Experiments were carried out using the following procedure. Human BDNF was coated at a concentration of 0.5 μg/mL (for blocking mouse TrkB.hFc interaction) or 0.3 μg/mL (for blocking rat TrkB.mmh interaction) in PBS on 96-well microtiter plate and incubated overnight at 4° C. […] In a 96-well dilution plate, 850 pM mouse TrkB.hFc or rat TrkB.mmh was mixed with the three-fold serially diluted anti-mouse TrkB antibodies and control antibody. The final antibody concentrations ranged from 1.69 pM to 100 nM. The protein-antibody mix was incubated at room temperature (RT) for 1 hour. The pre-bound mix was then transferred in duplicates to microtiter plates coated with BDNF. A control containing assay buffer alone was included to calculate the baseline of the assay. The ELISA plates were incubated at RT for 1 hour and then washed with plate washing solution. Plate-bound mouse TrkB.hFc was detected with HRP-conjugated goat anti-human Fcγ fragment specific antibody (Jackson Immunoresearch) and rat TrkB.mmh was detected with HRP-conjugated anti-histidine antibody (Qiagen). The plates were incubated with detection antibody for 1 hour at RT and then washed with plate washing solution. The assay plates were developed with TMB colorimetric substrates according to the manufacturer's recommended procedure.
The absorbance at 450 nm for each well was recorded and plotted as a function of the concentration of antibody. Data was analyzed in GraphPad Prism software using a four-parameter logistic equation over an 11-point dose response curve and IC₅₀ values were calculated. […] Percent blockade at maximum concentration of the antibody tested was calculated as an indicator of the ability of the antibodies to block the binding of TrkB to BDNF on the plate relative to the baseline of the assay. Binding signal of 850 pM mouse or rat TrkB in absence of the antibody was defined as 100% binding or 0% blocking. The baseline signal of assay buffer alone was defined as 0% binding or 100% blocking.

T1 sequence (P15209 other isoform, or with tags, fused parts or gaps): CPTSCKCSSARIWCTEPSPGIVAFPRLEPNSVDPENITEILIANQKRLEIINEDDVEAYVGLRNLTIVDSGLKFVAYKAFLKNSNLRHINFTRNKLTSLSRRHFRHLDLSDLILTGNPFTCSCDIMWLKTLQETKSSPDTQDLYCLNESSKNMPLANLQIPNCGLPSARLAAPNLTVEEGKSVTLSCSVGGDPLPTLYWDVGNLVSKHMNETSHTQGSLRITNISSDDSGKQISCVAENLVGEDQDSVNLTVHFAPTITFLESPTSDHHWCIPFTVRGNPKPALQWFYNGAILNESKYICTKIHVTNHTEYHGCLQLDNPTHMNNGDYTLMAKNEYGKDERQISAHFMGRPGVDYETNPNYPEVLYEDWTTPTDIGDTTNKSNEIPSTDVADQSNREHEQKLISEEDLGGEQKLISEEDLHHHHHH
T2 sequence (Q63604 other isoform, or with tags, fused parts or gaps): as the sequence (P15209 other isoform, or with tags, fused parts or gaps) above, with T3M, S9T, A10T, V32I, R63K, S84G, M153T, L185I, S394T counted along it
T3 sequence (Q16620 other isoform, or with tags, fused parts or gaps): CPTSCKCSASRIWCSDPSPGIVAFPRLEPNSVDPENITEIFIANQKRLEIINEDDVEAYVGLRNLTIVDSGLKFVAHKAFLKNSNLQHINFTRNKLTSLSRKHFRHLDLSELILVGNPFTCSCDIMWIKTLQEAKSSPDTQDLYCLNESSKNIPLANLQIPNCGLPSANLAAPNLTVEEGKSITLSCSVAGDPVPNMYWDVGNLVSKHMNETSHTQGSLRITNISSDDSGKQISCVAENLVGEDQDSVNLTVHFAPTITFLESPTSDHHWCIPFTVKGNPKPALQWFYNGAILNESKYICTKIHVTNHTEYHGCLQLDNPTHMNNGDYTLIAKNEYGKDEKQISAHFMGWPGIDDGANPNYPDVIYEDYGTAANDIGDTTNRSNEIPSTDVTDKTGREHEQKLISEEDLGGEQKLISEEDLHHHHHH
T5 sequence (chain, as listed by the source limits assumed): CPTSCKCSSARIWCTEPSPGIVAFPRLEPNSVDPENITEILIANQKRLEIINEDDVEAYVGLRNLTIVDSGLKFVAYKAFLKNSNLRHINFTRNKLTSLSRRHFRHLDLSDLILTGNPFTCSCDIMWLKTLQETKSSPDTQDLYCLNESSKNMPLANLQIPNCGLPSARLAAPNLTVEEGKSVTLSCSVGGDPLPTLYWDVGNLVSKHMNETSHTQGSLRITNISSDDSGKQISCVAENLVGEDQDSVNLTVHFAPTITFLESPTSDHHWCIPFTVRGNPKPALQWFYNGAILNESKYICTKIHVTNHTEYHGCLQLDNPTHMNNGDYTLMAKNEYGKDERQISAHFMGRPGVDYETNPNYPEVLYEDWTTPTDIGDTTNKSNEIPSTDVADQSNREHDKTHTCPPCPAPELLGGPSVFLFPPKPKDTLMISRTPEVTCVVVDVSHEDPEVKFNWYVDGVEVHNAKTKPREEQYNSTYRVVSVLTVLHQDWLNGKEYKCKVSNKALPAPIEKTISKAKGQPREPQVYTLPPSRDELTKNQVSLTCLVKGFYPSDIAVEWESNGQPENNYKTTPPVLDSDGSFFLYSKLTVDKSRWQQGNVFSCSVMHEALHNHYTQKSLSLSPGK
T4 sequence (chain, as listed by the source limits assumed): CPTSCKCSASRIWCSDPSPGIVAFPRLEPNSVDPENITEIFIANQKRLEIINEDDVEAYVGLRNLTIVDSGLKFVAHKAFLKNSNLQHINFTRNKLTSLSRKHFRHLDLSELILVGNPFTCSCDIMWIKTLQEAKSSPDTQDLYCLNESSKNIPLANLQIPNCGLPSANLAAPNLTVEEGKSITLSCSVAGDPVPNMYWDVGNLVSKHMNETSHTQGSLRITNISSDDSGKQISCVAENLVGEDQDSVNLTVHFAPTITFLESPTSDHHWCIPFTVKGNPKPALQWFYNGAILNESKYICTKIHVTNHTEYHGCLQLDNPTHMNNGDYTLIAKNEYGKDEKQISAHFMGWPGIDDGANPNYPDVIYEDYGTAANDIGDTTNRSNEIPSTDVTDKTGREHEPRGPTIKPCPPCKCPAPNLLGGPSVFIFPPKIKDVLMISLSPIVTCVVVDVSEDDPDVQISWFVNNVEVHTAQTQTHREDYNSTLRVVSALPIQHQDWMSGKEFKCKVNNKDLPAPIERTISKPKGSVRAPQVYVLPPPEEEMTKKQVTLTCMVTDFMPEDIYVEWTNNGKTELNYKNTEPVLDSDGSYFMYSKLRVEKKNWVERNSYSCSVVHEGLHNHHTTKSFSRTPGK

Binder	100 nM mTrkBmmH Bound (RU) [1] [RU]	100 nM rTrkB.mmH Bound (RU) [2] [RU]	100 nM hTrkB.mmH Bound (RU) [3] [RU]	Kd [3] [nM]	koff [3] [s⁻¹]	kon [3] [M⁻¹ s⁻¹]	t½ [3] [min]	100 nM hTrkB-mFc Bound (RU) [4] [RU]	Kd [4] [nM]	koff [4] [s⁻¹]	kon [4] [M⁻¹ s⁻¹]	t½ [4] [min]	mAb Binding (nm) [5] [nm]	antibody Binding (nm) [6] [nm]	antibody Binding (nm) [7] [nm]	binding result [2]	antibody Binding (nm) (mouse TrkB.hFc [8])	antibody Binding (nm) (mouse TrkB.hFc [9])	% Blockade with 100 nM antibody (mouse TrkB.hFc [10]) [%]	IC50 (mouse TrkB.hFc [10]) [nM]
B1	1	0	14	63.8	0.00364	57100	3.2	14	3.33	0.000222	66500	52	0.18	0.2	0.2	–	–	–	–	–
B2	0	-1	32	2.28	0.00468	2.05e+06	2.5	42	0.0733	0.000208	2.83e+06	56	0.18	0.22	0.23	–	–	–	–	–
B3	0	0	12	70.8	0.00374	52800	3.1	14	3.46	0.00024	69500	48	0.19	0.26	0.24	no binding (tested: 100 nM)	–	–	–	–
B4	–	–	–	–	–	–	–	–	–	–	–	–	–	–	–	–	0.42	0.06	91.5	0.18
B5	–	–	–	–	–	–	–	–	–	–	–	–	–	–	–	–	0.42	0.38	29.7	–
B6	–	–	–	–	–	–	–	–	–	–	–	–	–	–	–	–	0.42	0.44	11.6	–

— patent US20190161551A1 (Regeneron, published 2019)
